Experimental data taken from IntAct's records for PubMed 31515488.

B1: Protein phosphatase 1 regulatory inhibitor subunit 16B (Homo sapiens), Q96T49 (parent)
chain: MASHVDLLTELQLLEKVPTLERLRAAQKRRAQQLKKWAQYEQDLQHRKRKHERKRSTGGRRKKVSFEASVALLEASLRNDAEEVRYFLKNKVSPDLCNEDGLTALHQCCIDNFEEIVKLLLSHGANVNAKDNELWTPLHAAATCGHINLVKILVQYGADLLAVNSDGNMPYDLCEDEPTLDVIETCMAYQGITQEKINEMRVAPEQQMIADIHCMIAAGQDLDWIDAQGATLLHIAGANGYLRAAELLLDHGVRVDVKDWDGWEPLHAAAFWGQMQMAELLVSHGASLSARTSMDEMPIDLCEEEEFKVLLLELKHKHDVIMKSQLRHKSSLSRRTSSAGSRGKVVRRASLSDRTNLYRKEYEGEAILWQRSAAEDQRTSTYNGDIRETRTDQENKDPNPRLEKPVLLSEFPTKIPRGELDMPVENGLRAPVSAYQYALANGDVWKVHEVPDYSMAYGNPGVADATPPWSSYKEQSPQTLLELKRQRAAAKLLSHPFLSTHLGSSMARTGESSSEGKAPLIGGRTSPYSSNGTSVYYTVTSGDPPLLKFKAPIEEMEEKVHGCCRIS
partner: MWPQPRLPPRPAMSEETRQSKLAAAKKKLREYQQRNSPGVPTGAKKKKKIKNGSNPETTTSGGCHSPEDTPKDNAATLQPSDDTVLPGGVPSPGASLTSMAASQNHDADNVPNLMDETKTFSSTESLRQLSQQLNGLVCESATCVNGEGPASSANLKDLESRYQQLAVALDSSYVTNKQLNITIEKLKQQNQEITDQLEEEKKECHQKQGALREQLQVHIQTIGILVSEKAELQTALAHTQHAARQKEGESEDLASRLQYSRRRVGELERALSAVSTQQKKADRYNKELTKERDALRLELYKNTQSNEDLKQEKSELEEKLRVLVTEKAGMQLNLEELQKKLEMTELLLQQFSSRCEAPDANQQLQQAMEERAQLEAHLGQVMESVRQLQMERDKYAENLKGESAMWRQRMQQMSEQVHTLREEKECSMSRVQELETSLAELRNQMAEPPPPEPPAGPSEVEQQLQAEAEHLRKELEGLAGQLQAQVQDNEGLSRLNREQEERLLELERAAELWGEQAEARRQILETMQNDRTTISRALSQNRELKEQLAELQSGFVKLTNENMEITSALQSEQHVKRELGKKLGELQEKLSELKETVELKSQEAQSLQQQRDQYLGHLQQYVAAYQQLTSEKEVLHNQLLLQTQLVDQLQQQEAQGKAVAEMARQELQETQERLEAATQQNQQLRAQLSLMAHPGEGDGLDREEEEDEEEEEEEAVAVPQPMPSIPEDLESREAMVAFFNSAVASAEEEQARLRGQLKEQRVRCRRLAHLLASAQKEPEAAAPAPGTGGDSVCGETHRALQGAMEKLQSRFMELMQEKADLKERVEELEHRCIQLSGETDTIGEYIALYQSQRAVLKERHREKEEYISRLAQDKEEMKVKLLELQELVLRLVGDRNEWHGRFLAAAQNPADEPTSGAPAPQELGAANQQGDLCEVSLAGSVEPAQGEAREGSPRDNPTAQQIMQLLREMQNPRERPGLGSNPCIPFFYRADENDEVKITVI
B2: MYG1 exonuclease (Homo sapiens), Q9HB07 (parent)
chain: MGHRFLRGLLTLLLPPPPLYTRHRMLGPESVPPPKRSRSKLMAPPRIGTHNGTFHCDEALACALLRLLPEYRDAEIVRTRDPEKLASCDIVVDVGGEYDPRRHRYDHHQRSFTETMSSLSPGKPWQTKLSSAGLIYLHFGHKLLAQLLGTSEEDSMVGTLYDKMYENFVEEVDAVDNGISQWAEGEPRYALTTTLSARVARLNPTWNHPDQDTEAGFKRAMDLVQEEFLQRLDFYQHSWLPARALVEEALAQRFQVDPSGEIVELAKGACPWKEHLYHLESGLSPPVAIFFVIYTDQAGQWRIQCVPKEPHSFQSRLPLPEPWRGLRDEALDQVSGIPGCIFVHASGFIGGHRTREGALSMARATLAQRSYLPQIS
partner: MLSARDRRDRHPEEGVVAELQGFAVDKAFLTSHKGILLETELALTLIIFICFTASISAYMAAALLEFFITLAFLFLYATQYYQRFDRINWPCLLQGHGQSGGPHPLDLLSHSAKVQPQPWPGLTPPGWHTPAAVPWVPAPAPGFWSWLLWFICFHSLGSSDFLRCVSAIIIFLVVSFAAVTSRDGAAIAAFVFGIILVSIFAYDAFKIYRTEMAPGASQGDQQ
B3: Asc-type amino acid transporter 1 (Homo sapiens), Q9NS82 (parent)
chain: MAGHTQQPSGRGNPRPAPSPSPVPGTVPGASERVALKKEIGLLSACTIIIGNIIGSGIFISPKGVLEHSGSVGLALFVWVLGGGVTALGSLCYAELGVAIPKSGGDYAYVTEIFGGLAGFLLLWSAVLIMYPTSLAVISMTFSNYVLQPVFPNCIPPTTASRVLSMACLMLLTWVNSSSVRWATRIQDMFTGGKLLALSLIIGVGLLQIFQGHFEELRPSNAFAFWMTPSVGHLALAFLQGSFAFSGWNFLNYVTEEMVDARKNLPRAIFISIPLVTFVYTFTNIAYFTAMSPQELLSSNAVAVTFGEKLLGYFSWVMPVSVALSTFGGINGYLFTYSRLCFSGAREGHLPSLLAMIHVRHCTPIPALLVCCGATAVIMLVGDTYTLINYVSFINYLCYGVTILGLLLLRWRRPALHRPIKVNLLIPVAYLVFWAFLLVFSFISEPMVCGVGVIIILTGVPIFFLGVFWRSKPKCVHRLTESMTHWGQELCFVVYPQDAPEEEENGPCPPSLLPATDKPSKPQ
partner: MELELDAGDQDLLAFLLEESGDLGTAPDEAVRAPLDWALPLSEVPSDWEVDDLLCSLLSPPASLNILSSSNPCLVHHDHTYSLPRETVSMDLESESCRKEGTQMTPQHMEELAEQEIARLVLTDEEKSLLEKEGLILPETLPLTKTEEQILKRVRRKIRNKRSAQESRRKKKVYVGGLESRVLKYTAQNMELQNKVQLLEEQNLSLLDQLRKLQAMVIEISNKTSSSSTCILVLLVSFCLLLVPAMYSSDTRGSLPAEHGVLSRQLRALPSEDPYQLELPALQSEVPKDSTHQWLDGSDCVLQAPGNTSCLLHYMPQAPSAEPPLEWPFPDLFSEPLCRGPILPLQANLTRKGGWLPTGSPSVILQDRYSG
B4: Mevalonate kinase (Homo sapiens), Q03426 (parent)
chain: MLSEVLLVSAPGKVILHGEHAVVHGKVALAVSLNLRTFLRLQPHSNGKVDLSLPNIGIKRAWDVARLQSLDTSFLEQGDVTTPTSEQVEKLKEVAGLPDDCAVTERLAVLAFLYLYLSICRKQRALPSLDIVVWSELPPGAGLGSSAAYSVCLAAALLTVCEEIPNPLKDGDCVNRWTKEDLELINKWAFQGERMIHGNPSGVDNAVSTWGGALRYHQGKISSLKRSPALQILLTNTKVPRNTRALVAGVRNRLLKFPEIVAPLLTSIDAISLECERVLGEMGEAPAPEQYLVLEELIDMNQHHLNALGVGHASLDQLCQVTRARGLHSKLTGAGGGGCGITLLKPGLEQPEVEATKQALTSCGFDCLETSIGAPGVSIHSATSLDSRVQQALDGL

Variants of: B1
Settings: with goga2_human GOLGA2, Q08379

| Variant | effect of a mutation on the interaction |
| --- | --- |
| P519S | with no effect |

Variants of: B2
Settings: with cklf5_human CMTM5, Q96DZ9

| Variant | effect of a mutation on the interaction |
| --- | --- |
| R243Q | with no effect |

Variants of: B3
Settings: with creb3_human CREB3, O43889

| Variant | effect of a mutation on the interaction |
| --- | --- |
| R267H | with no effect |
| R413Q | with no effect |

Variants of: B4
Settings: with ews_human EWSR1, Q01844
ews_human EWSR1, Q01844, sequence (Q01844 whole entry): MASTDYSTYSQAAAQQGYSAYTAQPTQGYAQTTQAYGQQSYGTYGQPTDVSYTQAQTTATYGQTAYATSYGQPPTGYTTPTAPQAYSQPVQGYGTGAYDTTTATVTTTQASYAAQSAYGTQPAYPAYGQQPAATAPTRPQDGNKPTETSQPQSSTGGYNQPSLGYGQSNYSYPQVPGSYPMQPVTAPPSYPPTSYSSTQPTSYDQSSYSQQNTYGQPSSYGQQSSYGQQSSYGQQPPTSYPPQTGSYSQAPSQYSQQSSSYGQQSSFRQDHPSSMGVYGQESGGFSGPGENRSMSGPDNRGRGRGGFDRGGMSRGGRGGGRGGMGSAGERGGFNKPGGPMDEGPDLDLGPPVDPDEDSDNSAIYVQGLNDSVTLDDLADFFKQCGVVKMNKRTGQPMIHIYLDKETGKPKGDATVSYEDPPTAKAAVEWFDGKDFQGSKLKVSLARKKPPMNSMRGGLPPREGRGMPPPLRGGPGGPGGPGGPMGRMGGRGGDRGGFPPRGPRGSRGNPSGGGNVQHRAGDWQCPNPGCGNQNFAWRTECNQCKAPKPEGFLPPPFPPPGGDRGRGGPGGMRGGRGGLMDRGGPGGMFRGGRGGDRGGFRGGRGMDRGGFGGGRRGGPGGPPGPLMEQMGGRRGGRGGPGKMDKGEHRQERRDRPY

| Variant | effect of a mutation on the interaction |
| --- | --- |
| N301T | with no effect |
| H20Q | with no effect |
